According to publication PMC2814163:
Where two headings read alike, the source gives them in different places.

What was measured:
[1] = target: plasminogen (Homo sapiens) (UniProt P00747); details: cited from earlier work
[2] = target: Dom1-3His (extracytoplasmic domains 1-3 of the bovine CI-MPR, residues 1-432, C-terminal His6) (bovine) (UniProt P08169); assay: SPR
[3] = target: Dom1-2His (domains 1-2 of the bovine CI-MPR, residues 1-281, C-terminal His6) (bovine) (UniProt P08169); assay: SPR
[4] = target: Dom1-3His (extracytoplasmic domains 1-3 of the bovine CI-MPR, residues 1-432, C-terminal His6) (bovine) (UniProt P08169); assay: SPR; remark: listed apart in the source
[5] = target: Dom1-3HisK125A (bovine) (UniProt P08169); assay: SPR
Dom1-3HisK125A (bovine), sequence (P08169 45-476 K169A): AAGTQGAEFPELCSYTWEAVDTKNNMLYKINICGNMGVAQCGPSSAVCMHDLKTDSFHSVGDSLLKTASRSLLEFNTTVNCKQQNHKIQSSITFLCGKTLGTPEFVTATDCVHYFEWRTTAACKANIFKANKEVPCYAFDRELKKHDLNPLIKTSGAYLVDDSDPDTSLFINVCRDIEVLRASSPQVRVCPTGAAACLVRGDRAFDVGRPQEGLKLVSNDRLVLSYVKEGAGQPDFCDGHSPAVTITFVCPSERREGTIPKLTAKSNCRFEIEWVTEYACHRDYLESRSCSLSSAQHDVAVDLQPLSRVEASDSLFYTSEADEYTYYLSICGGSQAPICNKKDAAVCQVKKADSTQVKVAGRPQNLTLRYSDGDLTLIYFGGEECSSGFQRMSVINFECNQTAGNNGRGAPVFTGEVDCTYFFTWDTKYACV

[6] = target: Dom1-3HisK132A (bovine) (UniProt P08169); assay: SPR
Dom1-3HisK132A (bovine), sequence (P08169 45-476 K176A): as the sequence (P08169 45-476 K169A) above, with A125K, K132A counted along it

[7] = target: Dom1-3HisK215A (bovine) (UniProt P08169); assay: SPR
Dom1-3HisK215A (bovine), sequence (P08169 45-476 K259A): as the sequence (P08169 45-476 K169A) above, with A125K, K215A counted along it

[8] = target: Dom1-3HisK23A (bovine) (UniProt P08169); assay: SPR
Dom1-3HisK23A (bovine), sequence (P08169 45-476 K67A): as the sequence (P08169 45-476 K169A) above, with K23A, A125K counted along it

[9] = target: Dom1-3HisK53A (bovine) (UniProt P08169); assay: SPR
Dom1-3HisK53A (bovine), sequence (P08169 45-476 K97A): as the sequence (P08169 45-476 K169A) above, with K53A, A125K counted along it

[10] = target: Dom1-3HisK82A (bovine) (UniProt P08169); assay: SPR
Dom1-3HisK82A (bovine), sequence (P08169 45-476 K126A): as the sequence (P08169 45-476 K169A) above, with K82A, A125K counted along it

[11] = target: Dom1-3HisK98A (bovine) (UniProt P08169); assay: SPR
Dom1-3HisK98A (bovine), sequence (P08169 45-476 K142A): as the sequence (P08169 45-476 K169A) above, with K98A, A125K counted along it

[12] = target: Dom1-3HisR118A (bovine) (UniProt P08169); assay: SPR
Dom1-3HisR118A (bovine), sequence (P08169 45-476 R162A): as the sequence (P08169 45-476 K169A) above, with R118A, A125K counted along it

[13] = target: Dom1His (domain 1 of the bovine CI-MPR, residues 1-123, C-terminal His6) (bovine) (UniProt P08169); assay: SPR
Dom1His (domain 1 of the bovine CI-MPR, residues 1-123, C-terminal His6) (bovine), sequence (P08169 45-167): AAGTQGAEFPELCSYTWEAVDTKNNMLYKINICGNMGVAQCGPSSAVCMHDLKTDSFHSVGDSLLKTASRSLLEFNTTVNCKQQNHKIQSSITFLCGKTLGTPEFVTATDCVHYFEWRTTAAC

[14] = target: soluble form of the cation-independent mannose 6-phosphate receptor isolated from fetal bovine serum (bovine) (UniProt P08169); assay: SPR
soluble form of the cation-independent mannose 6-phosphate receptor isolated from fetal bovine serum (bovine), sequence (P08169 45-2313): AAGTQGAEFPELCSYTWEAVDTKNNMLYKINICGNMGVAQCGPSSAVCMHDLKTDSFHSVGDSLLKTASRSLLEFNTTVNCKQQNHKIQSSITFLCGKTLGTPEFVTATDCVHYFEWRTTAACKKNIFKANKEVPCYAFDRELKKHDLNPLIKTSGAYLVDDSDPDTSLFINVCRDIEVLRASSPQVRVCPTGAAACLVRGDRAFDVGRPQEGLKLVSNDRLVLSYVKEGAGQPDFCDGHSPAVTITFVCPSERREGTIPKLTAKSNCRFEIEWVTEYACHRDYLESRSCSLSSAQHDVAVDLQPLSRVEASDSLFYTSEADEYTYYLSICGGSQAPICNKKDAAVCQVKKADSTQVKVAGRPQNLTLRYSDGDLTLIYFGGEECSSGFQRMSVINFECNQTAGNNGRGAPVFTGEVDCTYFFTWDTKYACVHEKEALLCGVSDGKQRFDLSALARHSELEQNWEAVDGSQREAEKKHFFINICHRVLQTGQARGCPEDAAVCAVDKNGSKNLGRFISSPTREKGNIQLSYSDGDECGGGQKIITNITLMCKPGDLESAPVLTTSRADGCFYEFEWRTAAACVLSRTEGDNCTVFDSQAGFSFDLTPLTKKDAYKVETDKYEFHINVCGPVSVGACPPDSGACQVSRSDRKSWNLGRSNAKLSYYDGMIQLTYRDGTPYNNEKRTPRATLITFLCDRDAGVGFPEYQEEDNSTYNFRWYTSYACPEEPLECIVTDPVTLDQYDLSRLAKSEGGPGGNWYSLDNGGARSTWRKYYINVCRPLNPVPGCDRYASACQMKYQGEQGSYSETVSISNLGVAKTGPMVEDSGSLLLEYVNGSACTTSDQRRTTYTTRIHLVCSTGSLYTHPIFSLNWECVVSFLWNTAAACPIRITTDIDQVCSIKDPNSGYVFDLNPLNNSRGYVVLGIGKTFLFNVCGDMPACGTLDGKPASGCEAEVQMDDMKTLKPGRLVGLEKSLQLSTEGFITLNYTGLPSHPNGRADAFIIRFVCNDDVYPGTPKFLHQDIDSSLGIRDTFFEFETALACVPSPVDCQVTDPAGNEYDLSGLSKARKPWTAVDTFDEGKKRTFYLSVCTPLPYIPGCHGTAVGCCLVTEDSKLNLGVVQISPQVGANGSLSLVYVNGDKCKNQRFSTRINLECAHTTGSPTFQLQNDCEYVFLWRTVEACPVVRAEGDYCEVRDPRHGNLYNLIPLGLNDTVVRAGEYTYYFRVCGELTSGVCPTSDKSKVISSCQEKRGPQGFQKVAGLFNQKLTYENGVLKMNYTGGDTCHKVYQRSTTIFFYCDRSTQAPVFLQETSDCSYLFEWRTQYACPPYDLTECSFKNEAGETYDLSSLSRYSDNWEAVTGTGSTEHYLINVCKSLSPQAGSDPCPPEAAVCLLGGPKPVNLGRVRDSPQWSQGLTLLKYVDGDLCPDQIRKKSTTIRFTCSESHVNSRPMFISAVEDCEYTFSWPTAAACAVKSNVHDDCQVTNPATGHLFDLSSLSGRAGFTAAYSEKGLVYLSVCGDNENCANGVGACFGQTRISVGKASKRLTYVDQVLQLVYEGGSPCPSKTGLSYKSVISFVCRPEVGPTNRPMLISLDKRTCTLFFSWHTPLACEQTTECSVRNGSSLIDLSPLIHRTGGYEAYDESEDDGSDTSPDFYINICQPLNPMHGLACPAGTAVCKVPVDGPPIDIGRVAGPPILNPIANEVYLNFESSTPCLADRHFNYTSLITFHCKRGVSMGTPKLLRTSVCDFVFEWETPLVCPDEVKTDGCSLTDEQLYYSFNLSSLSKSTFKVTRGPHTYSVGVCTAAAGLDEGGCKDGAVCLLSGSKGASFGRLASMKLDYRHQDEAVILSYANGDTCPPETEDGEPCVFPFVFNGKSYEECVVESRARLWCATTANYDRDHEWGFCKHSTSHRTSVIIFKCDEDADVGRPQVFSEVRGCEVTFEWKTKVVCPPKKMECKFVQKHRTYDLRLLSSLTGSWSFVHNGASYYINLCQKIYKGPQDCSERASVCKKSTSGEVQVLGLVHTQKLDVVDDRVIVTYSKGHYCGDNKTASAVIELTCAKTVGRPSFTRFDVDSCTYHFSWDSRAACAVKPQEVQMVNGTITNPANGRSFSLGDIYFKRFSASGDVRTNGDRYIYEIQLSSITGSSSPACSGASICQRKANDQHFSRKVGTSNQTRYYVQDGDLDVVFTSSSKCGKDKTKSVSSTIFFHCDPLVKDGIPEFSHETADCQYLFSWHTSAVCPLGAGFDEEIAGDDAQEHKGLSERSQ

Dom1-3His (extracytoplasmic domains 1-3 of the bovine CI-MPR, residues 1-432, C-terminal His6) (bovine), sequence (P08169 45-476): as the sequence (P08169 45-476 K169A) above, with A125K counted along it
Dom1-2His (domains 1-2 of the bovine CI-MPR, residues 1-281, C-terminal His6) (bovine), sequence (P08169 45-325): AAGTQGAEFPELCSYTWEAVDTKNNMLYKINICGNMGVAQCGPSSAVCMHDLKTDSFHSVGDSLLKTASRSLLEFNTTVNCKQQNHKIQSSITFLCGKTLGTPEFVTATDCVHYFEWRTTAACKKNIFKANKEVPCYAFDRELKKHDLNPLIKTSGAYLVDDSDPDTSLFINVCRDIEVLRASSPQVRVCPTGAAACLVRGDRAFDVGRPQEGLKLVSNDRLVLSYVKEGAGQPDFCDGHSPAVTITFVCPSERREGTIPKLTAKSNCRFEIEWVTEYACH
plasminogen (Homo sapiens), sequence (P00747 20-810): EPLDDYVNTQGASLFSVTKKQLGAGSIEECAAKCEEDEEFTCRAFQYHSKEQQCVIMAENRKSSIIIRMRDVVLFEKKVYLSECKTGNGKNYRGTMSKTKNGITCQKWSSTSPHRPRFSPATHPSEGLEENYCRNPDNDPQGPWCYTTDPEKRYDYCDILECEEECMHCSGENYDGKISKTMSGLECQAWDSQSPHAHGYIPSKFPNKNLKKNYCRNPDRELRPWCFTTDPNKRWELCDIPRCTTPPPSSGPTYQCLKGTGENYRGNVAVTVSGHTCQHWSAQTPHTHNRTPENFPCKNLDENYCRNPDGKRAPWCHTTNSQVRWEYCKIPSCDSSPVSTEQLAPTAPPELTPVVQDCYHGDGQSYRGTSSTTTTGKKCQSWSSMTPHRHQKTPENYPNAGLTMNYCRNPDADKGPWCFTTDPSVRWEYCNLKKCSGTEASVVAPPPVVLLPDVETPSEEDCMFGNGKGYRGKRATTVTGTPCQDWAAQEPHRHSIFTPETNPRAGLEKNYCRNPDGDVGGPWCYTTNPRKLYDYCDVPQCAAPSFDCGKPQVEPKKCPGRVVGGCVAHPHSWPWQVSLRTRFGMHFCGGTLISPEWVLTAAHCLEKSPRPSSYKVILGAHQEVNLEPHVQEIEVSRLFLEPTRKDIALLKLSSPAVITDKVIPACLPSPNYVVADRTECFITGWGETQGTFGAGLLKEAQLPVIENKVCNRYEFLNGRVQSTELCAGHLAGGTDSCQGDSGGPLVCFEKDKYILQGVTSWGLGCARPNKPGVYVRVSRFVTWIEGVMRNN

Row | Substance | Kd [1] | Kd [2] | Kd2 (two-site model) [3] | Kd [4] | Kd [5] | Kd [6] | Kd [7] | Kd [8] | Kd [9] | Kd [10] | Kd [11] | Kd [12] | Kd1 (two-site model) [13] | Kd2 (two-site model) [13] | Kd2 (two-site model) [14]
1 | CI-MPR (from UniProt P11717) | 270 nM | – | – | – | – | – | – | – | – | – | – | – | – | – | –
2 | bovine Glu-plasminogen (natural protein) | – | 131 nM | 170 nM | 271 nM | > 2000 nM | 64 nM | 10 nM | 33 nM | > 2000 nM | 69 nM | 24 nM | 21 nM | > 2 µM | > 2 µM | 290 nM
3 | human angiostatin K1-4 (domain or fragment) | – | – | – | 170 nM | – | – | – | – | – | – | – | – | – | – | –
